The values that follow come from publication PMC5385526 (Scientific Reports, 2017).

The stoichiometry N is a count of units in the complex or per binding partner.

In series [1] the target is seleno-Met, endoglycosidase H-treated porcine APN ectodomain (pig) (UniProt P15145). The experiment in a line: crystal structure; HA-tagged APN ectodomains; pAPNeh: 5% PEG-1000, 10% PEG-8000 (pH ~6); native pAPN: 20% PEG-3350, 100 mM sodium acetate pH 5.6; hAPN: 20% PEG-6000, 50 mM imidazole-HCl pH 8.0; dimer in the crystals.
For series [2], the target named is porcine aminopeptidase N (pAPN) ectodomain, soluble (pig) (UniProt P15145). Described as above.
Series [3] has as its target TGEV RBD-Fc fusion protein (bivalent RBD-Fc variant). The experiment in a line: flow cytometry on cells. Conditions: 293T cell surface, normalized to cell surface expression, read off a plot. (A flow cytometer gives signals particle by particle.)
Series [4] concerns the molecule itself. The experiment in a line: crystal structure; HA-tagged APN ectodomains; pAPNeh: 5% PEG-1000, 10% PEG-8000 (pH ~6); native pAPN: 20% PEG-3350, 100 mM sodium acetate pH 5.6; hAPN: 20% PEG-6000, 50 mM imidazole-HCl pH 8.0; dimer in the crystals.
The mark [5] stands for this setting: + DTT (5 mM; 30 min, 37 °C) before assay, parent: est. 110.

In series [1], “seleno-Met, endoglycosidase H-treated porcine APN ectodomain (from UniProt P15145 36-963) (domain or fragment)” displayed a stoichiometry N of 2.
On to “porcine aminopeptidase N (pAPN) ectodomain, soluble (from UniProt P15145 36-963) (domain or fragment)”, for which the stoichiometry N in series [2] is 2.
In the case of “wild type porcine APN on the surface of transiently transfected 293T cells (from UniProt P15145) S464C; S892C; S929C”, the percent of parent in series [3] (setting [5]) came out at 76%; in series [3] (- DTT, parent: est. 100) it was 37%.
Taken in the same sequence, the figures for “wild type porcine APN on the surface of transiently transfected 293T cells (from UniProt P15145) S464C; S892C” were 120% and 45%.
In the case of “wild type porcine APN on the surface of transiently transfected 293T cells (from UniProt P15145) S464C; S929C”, the percent of parent in series [3] (setting [5]) worked out at 110%; in series [3] (- DTT, parent: est. 100) it was 19%.

B1: human aminopeptidase N (hAPN) ectodomain, soluble (domain or fragment, UniProt P15144 36-967, looked up)
chain: EKNKNANSSPVASTTPSASATTNPASATTLDQSKAWNRYRLPNTLKPDSYRVTLRPYLTPNDRGLYVFKGSSTVRFTCKEATDVIIIHSKKLNYTLSQGHRVVLRGVGGSQPPDIDKTELVEPTEYLVVHLKGSLVKDSQYEMDSEFEGELADDLAGFYRSEYMEGNVRKVVATTQMQAADARKSFPCFDEPAMKAEFNITLIHPKDLTALSNMLPKGPSTPLPEDPNWNVTEFHTTPKMSTYLLAFIVSEFDYVEKQASNGVLIRIWARPSAIAAGHGDYALNVTGPILNFFAGHYDTPYPLPKSDQIGLPDFNAGAMENWGLVTYRENSLLFDPLSSSSSNKERVVTVIAHELAHQWFGNLVTIEWWNDLWLNEGFASYVEYLGADYAEPTWNLKDLMVLNDVYRVMAVDALASSHPLSTPASEINTPAQISELFDAISYSKGASVLRMLSSFLSEDVFKQGLASYLHTFAYQNTIYLNLWDHLQEAVNNRSIQLPTTVRDIMNRWTLQMGFPVITVDTSTGTLSQEHFLLDPDSNVTRPSEFNYVWIVPITSIRDGRQQQDYWLIDVRAQNDLFSTSGNEWVLLNLNVTGYYRVNYDEENWRKIQTQLQRDHSAIPVINRAQIINDAFNLASAHKVPVTLALNNTLFLIEERQYMPWEAALSSLSYFKLMFDRSEVYGPMKNYLKKQVTPLFIHFRNNTNNWREIPENLMDQYSEVNAISTACSNGVPECEEMVSGLFKQWMENPNNNPIHPNLRSTVYCNAIAQGGEEEWDFAWEQFRNATLVNEADKLRAALACSKELWILNRYLSYTLNPDLIRKQDATSTIISITNNVIGQGLVWDFVQSNWKKLFNDYGGGSFSFSNLIQAVTRRFSTEYELQQLEQFKKDNEETGFGSGTRALEQALEKTKANIKWVKENKEVVLQWFTENSK
Regarding B1, the “stoichiometry N” value in series [4] was 2.
